Data on 4 molecules can be found in patent US9975933B2, “Tumor tissue-penetrating peptide specific to neuropilin and fusion protein having same peptide fused therein” (AJOU UNIVERSITY INDUSTRY-ACADEMIC COOPERATION FOUNDATION, priority 2013, dated 2018).

Data set [1] concerns HUVEC. In words: Transwell assay of vascular endothelial cell permeability. Type of data set: cell-based, human. The settings on record: 30 minutes. As for the experimental part: Based on the above experimental results, as experiments for confirming the improvement of vascular endothelial cell permeability, single peptides and Fc-TPP were treated to conduct Transwell assay.
Specifically, HUVECs were seeded into Transwell plate (Corning) at a density of 5×10^4 per well in a upper chamber using Endothelial Growth Medium, PromoCell (EGM) medium, followed by incubation at 37° C. for 3 days under 5% CO2 condition. […] Thereafter, Dextran-FITC (Sigma) 50 μg was put into the upper chamber and the medium of the lower chamber was sampled to measure its fluorescence after 30 minutes, using the principle that a fluorescent substance is observed in the lower chamber when the permeability in HUVECs was improved.

Data set [2] addresses T1, NRP1-b1b2 (b1b2 domain of neuropilin-1) (Homo sapiens, UniProt O14786).
T1 construct: b1b2 domains (273-586) of neuropilin-1
In words: SPR (Biacore2000) binding to b1b2 domain of neuropilin-1. The settings on record: for Association rate ka / Dissociation rate kd / Kd: NRP1-b1b2, SPR; for Kd: read-out: Binding affinity KD. As for the experimental part:
(§1) Specifically, each b1b2 domain of neuropilin-1 and -2 was diluted with 10 mM Na-acetate buffer (pH 4.0), and fixed onto CMS sensor chips (GE healthcare, USA) in about 1000 response units (RU). […] After bond and dissociation analysis, the regeneration of CMS chip was performed by streaming a buffer (20 Mm NaOH, 1 M NaCl, pH 10.0) at a stream velocity 30 μl/min for 1 minute.

For a further data set, the system named is A431 tumor. The experiment in a line: IHC of Fc-TPP infiltration in A431 tumor tissue. Type of data set: in vivo, Balb/c nude mice. The settings on record: A431 xenograft, 5 mg/kg intravenously, 3 hours. On the procedure:
3 hours after injection, tumors were extracted from mice to conduct immunohistochemistry experiment. The extracted tumors were cut into 20 μm thick using a frozen section method, and stained with a primary antibody, CD31 antibody (BD Pharmingen), and a TRITC (red fluorescence)-conjugated secondary antibody. Further, in order to observe Fc-TPP distributed in the tissues, FITC (green fluorescence)-conjugated antibodies recognizing Fc were used.

For another data set, the system named is E-cadherin in FaDu. In words: Western blot of E-cadherin in FaDu. It counts as cell-based, human. As for the experimental part: In order to confirm the effect of TPP on cancer cells, a change in E-cadherin was analyzed in human head and neck cancer cell line FaDu, under the same conditions as above experiments through Western blot.
A general note: In western blotting, separated proteins are transferred to a membrane and probed.

A further data set deals with VE-cadherin in HUVEC. The experiment in a line: Western blot of VE-cadherin in HUVEC. It counts as cell-based, human. The settings on record: single peptides and Fc-TPP 1 μM, 10 minutes. The text has this:
During this process, a decrease in vascular endothelial (VE)-cadherin, phosphorylation, etc. of endothelial cells occur. That is, VE-cadherin or epithelial (E)-cadherin involves in adhesion between endothelial cells, while forming the base of adherent junction between endothelial cells and epithelial cells. The change in molecules relieve the density of adherent junction, which results in increasing permeability of blood vessels and improving intracellular permeability.
As an experimental method for indirectly confirming improvement of vascular permeability based thereon, a change in VE-cadherin was confirmed through a Western blot. Specifically, HUVECs were seeded into 6-well plates at a density of 3×10^5 per well, followed by incubation for 24 hours. Thereafter, single peptides and Fc-TPP were treated with 1 μM for 10 minutes to perform a Western blot. Gel subjected to SDS-PAGE was transported into PVDF membrane, a primary antibody (SantaCruz) and an HRP-conjugated secondary antibody (SantaCruz) which recognize VE-cadherin and (3-actin, respectively were used for detection. ImageQuant LAS4000 mini (GE Healthcare) was used for analysis.

The target of data set [3] is T2, NRP2-b1b2 (b1b2 domain of neuropilin-2) (Homo sapiens, UniProt O60462).
T2 construct: b1b2 domains (275-595) of neuropilin-2
T2 sequence (O60462 275-595): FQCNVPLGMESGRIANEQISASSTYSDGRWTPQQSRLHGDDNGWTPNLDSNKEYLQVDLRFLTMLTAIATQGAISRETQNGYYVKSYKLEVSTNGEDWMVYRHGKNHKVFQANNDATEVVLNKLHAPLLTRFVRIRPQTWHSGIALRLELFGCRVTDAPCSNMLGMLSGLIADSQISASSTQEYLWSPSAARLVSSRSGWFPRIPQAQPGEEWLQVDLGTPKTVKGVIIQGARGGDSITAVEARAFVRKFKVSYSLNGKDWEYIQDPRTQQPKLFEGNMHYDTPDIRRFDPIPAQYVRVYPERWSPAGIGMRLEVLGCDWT
The experiment in a line: SPR (Biacore2000) binding to b1b2 domain of neuropilin-2. The settings on record: for Kd: read-out: Binding affinity KD. As for the experimental part:
as §1
On the technique in general: Surface plasmon resonance follows binding to a sensor surface in real time, without labels.

The subject of data set [4] is neuropilin-1 and -2 expressed on cell surface (SK-OV-3). In words: FACS binding to neuropilin-1 and -2 expressed on cell surface. Type of data set: cell-based, human. As for the experimental part: Specifically, after incubating human ovarian cancer cell line (SK-OV-3) under conditions of 5% CO2 and 37° C., 1×10^5 cells per sample were resuspended in a PBS buffer supplemented with 2% BSA and transferred to a FACS tube for conducting experiments.
Then, the mixture was reacted with cell line SK-OV-3 at 4° C. for 1 hour in the same manner and proteins were stained for conducting FACS analysis. […] This means that Fc-TPP binds specifically to neuropilin-1 and -2.
This means that the binding of Fc-TPP to neuropilin-1 and -2 is specific similar to the original ligands.
(In flow cytometry, cells or beads pass a laser one at a time.)

Another data set deals with PPC-1 cells. In words: Confocal microscopy of intracellular penetration and co-localization with neuropilin. The settings on record: 1 μM, 37° C., 1 hour. It counts as cell-based, human. On the procedure:
In order to confirm whether Fc-TPP has intracellular penetrating capacity by neuropilin-1 and -2, like other neuropilin ligands having intracellular penetrating capacity, confocal microscopy was used to observe intracellular penetration and co-localization with neuropilin-1 and -2.
Specifically, 5×10^4 PPC-1 cells were plated into 24-well plates containing DMEM medium 0.5 ml supplemented with 10% FBS per well, followed by incubation at 37° C. for 24 hours at 5% CO2. When the cells were stabilized, each well was washed with PBS 0.5 ml. […] After the medium was removed and each well was washed with PBS, Fc-TPP was stained with an antibody (Sigma) which specifically recognizes the FITC (green fluorescence)-conjugated Fc, and neuropilin-1 and -2 was stained with a primary antibody (SantaCruz) which recognizes each of them and with a TRITC (red fluorescence)-conjugated secondary antibody (Sigma). Nuclei were stained (blue fluorescence) with DAPI and observed under confocal microscopy.

The test system of the next data set is FaDu tumor. The experiment in a line: In vivo Evans Blue assay of vascular permeability. The arrangement: species or system Balb/c nude mice. The conditions noted are these: FaDu xenograft, 400 ng, 40 minutes. As for the experimental part:
Additionally, in order to confirm the improvement of vascular permeability in vivo, Evans Blue assay was conducted. […] 40 minutes after injection, the mice were perfused through the heart with PBS containing 1% BSA, and tumor tissues were extracted (FIG. 11d). Then, the extracted tissues were put into 1 ml of […] (Sigma) and reacted at 37° C. overnight under mild shaking condition. Thereafter, the supernatant was obtained from centrifugation to measure the absorbance (600 nm), and the amount that Evans Blue penetrated was quantified.

The test system of data set [5] is HUVEC. The experiment in a line: Tube formation assay in HUVEC. Type of data set: cell-based, human. The conditions noted are these: VEGF165A 20 ng/ml, 8 hours. On the procedure: As an experiment confirming angiogenesis in vitro based thereon, tube formation assay was conducted. As an experimental method, 50 μl of ECMatrix was injected into 96-well plates and polymerized at 37° C. for 2 hours. […] The incubated cells were observed by a microscope to obtain images.

Setting [6] is: single peptides and Fc-TPP 1 μM.

T1 sequence (O14786 273-586): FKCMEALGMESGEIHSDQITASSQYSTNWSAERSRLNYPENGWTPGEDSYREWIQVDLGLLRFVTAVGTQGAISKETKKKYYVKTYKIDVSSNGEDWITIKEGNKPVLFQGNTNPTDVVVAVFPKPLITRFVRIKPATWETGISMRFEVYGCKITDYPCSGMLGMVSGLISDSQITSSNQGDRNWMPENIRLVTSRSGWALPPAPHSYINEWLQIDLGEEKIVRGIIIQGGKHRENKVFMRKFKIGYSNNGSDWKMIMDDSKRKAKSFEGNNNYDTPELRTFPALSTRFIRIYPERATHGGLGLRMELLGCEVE

By Kd is commonly meant the free concentration of one partner at which half of the binding sites on the other are occupied at equilibrium, for simple one-to-one binding. For “Fc-15A22: Human IgG1 Fc with TPP 15A22 (SEQ ID NO: 6) fused to its C-terminus (GGGGSGGGGSGGGGSHTPGNSNKWKHLQENKKGRNRR)”, the “permeability of HUVEC (Transwell, Dextran-FITC)” value (shortened to “permeability of HUVEC”) with HUVEC [1] (setting [6]) is reported as “permeability of HUVEC was improved”. Further, the “difference in binding affinity between GAGA linker and (GGGGS)3 linker clones” value in data set [2] (Fc-4A22 compared with Fc-15A22, b1b2 of neuropilin-1 and -2) is “about 10 times”. Also, in data set [2], the Association rate ka was 4.86 ± 0.98 × 10^3 M^−1s^−1, the Dissociation rate kd is given as 2.95 ± 0.04 × 10^−2 s^−1 and the Kd amounted to 6060 nM. Also, the “infiltration into tumor tissue (IHC)” value in the data set with A431 tumor is listed as “infiltrated into tumor cells”. The “change in E-cadherin (Western blot)” value with E-cadherin in FaDu is listed as “induced a decrease in E-cadherin”. Moreover, the “change in VE-cadherin (Western blot)” value with VE-cadherin in HUVEC is “VE-cadherin was decreased”. Moreover, in [3], the Association rate ka is 3.94 ± 0.42 × 10^3 M^−1s^−1, the Dissociation rate kd was 3.87 ± 0.09 × 10^−2 s^−1 and the Kd came out at 9800 nM.

Take “Fc-15F22p: Human IgG1 Fc with TPP 15F22p (SEQ ID NO: 10) fused to its C-terminus (GGGGSGGGGSGGGGSREAPGAPRSPEPQDQKKPRPRR)”: in the data set on HUVEC [1] (setting [6]), the “permeability of HUVEC” value is “improvement of vascular permeability was induced”. Also, the “cell binding capacity after reaction in advance with b1b2 domains of neuropilin-1 and -2” value in [4] (1 μM protein, 2 μM b1b2 domains, SK-OV-3) is “remarkably reduced”. In [4] (Sema3A (Fc-15A22P) / Sema3F (Fc-15F22P) 100 μg/ml), the “cell binding capacity when mixed with parent ligand Sema3A or Sema3F” value was “reduced”. In data set [4] (VEGF165A 1 μg/ml), the “cell binding capacity when mixed with VEGF165A” value is given as “reduced”. For the same molecule, in [2], the Association rate ka is on record as 1.73 ± 0.26 × 10^4 M^−1s^−1, the Dissociation rate kd was 1.38 ± 0.12 × 10^−3 s^−1 and the Kd turned out to be 79.7 nM. Besides, the “change in E-cadherin (Western blot)” value with E-cadherin in FaDu is given as “E-cadherin was decreased”. Further, the “change in VE-cadherin (Western blot)” value in the data set on VE-cadherin in HUVEC is given as “induced a decrease in VE-cadherin”. Besides, in data set [3], the Association rate ka is 1.34 ± 0.24 × 10^4 M^−1s^−1, the Dissociation rate kd is 1.23 ± 0.16 × 10^−3 s^−1 and the Kd stood at 92.4 nM. Besides, in the data set with PPC-1 cells, the “co-localization with neuropilin-1 and -2” value was “co-localized with neuropilin-1 and -2”; the “intracellular penetration (confocal microscopy)” value is listed as “penetrated into cells”.

Regarding “VEGF165: Vascular endothelial cell growth factor-A isoform, neuropilin ligand, control group [reference compound]”, the “permeability of HUVEC” value in the data set with HUVEC [1] (control ligands about 1.3 nM) was “permeability of HUVEC was improved”. For the same molecule, in the data set with FaDu tumor, the “vascular permeability (Evans Blue)” value is “increased vascular permeability”. Further, in data set [2], the Association rate ka is reported as 9.75 ± 0.53 × 10^5 M^−1s^−1 and the Dissociation rate kd is reported as 3.42 ± 0.29 × 10^−3 s^−1. Besides, the “change in VE-cadherin (Western blot)” value in the data set with VE-cadherin in HUVEC is given as “a decrease in VE-cadherin was observed”. For the same molecule, in [3], the Association rate ka is 1.17 ± 0.12 × 10^5 M^−1s^−1 and the Dissociation rate kd is 3.73 ± 0.19 × 10^−3 s^−1. Besides, the “tube formation of HUVEC” value with HUVEC [5] is “increased tube formation”.

B1: Sema3A: Secreted class 3 semaphorin 3A (26-760), neuropilin ligand, control group (protein)
chain: KNNVPRLKLSYKEMLESNNVITFNGLANSSSYHTFLLDEERSRLYVGAKDHIFSFDLVNIKDFQKIVWPVSYTRRDECKWAGKDILKECANFIKVLKAYNQTHLYACGTGAFHPICTYIEIGHHPEDNIFKLENSHFENGRGKSPYDPKLLTASLLIDGELYSGTAADFMGRDFAIFRTLGHHHPIRTEQHDSRWLNDPKFISAHLISESDNPEDDKVYFFFRENAIDGEHSGKATHARIGQICKNDFGGHRSLVNKWTTFLKARLICSVPGPNGIDTHFDELQDVFLMNFKDPKNPVVYGVFTTSSNIFKGSAVCMYSMSDVRRVFLGPYAHRDGPNYQWVPYQGRVPYPRPGTCPSKTFGGFDSTKDLPDDVITFARSHPAMYNPVFPMNNRPIVIKTDVNYQFTQIVVDRVDAEDGQYDVMFIGTDVGTVLKVVSIPKETWYDLEEVLLEEMTVFREPTAISAMELSTKQQQLYIGSTAGVAQLPLHRCDIYGKACAECCLARDPYCAWDGSACSRYFPTAKRRTRRQDIRNGDPLTHCSDLHHDNHHGHSPEERIIYGVENSSTFLECSPKSQRALVYWQFQRRNEERKEEIRVDDHIIRTDQGLLLRSLQQKDSGNYLCHAVEHGFIQTLLKVTLEVIDTEHLEELLHKDDDGDGSKTKEMSNSMTPSQKVWYRDFMQLINHPNLNTMDEFCEQVWKRDRKQRRQRPGHTPGNSNKWKHLQENKKGRNRR
For B1, in the data set on HUVEC [1] (control ligands about 1.3 nM), the “permeability of HUVEC” value is given as “permeability of HUVEC was improved”. The “vascular permeability (Evans Blue)” value in the data set on FaDu tumor is reported as “increased vascular permeability”. Also, in [2], the Association rate ka is on record as 2.89 ± 0.07 × 10^4 M^−1s^−1, the Dissociation rate kd was 8.08 ± 0.06 × 10^−4 s^−1 and the Kd is 27.9 nM. Besides, the “change in VE-cadherin (Western blot)” value in the data set with VE-cadherin in HUVEC is given as “a decrease in VE-cadherin was observed”. Besides, in data set [3], the Association rate ka was 6.96 ± 0.03 × 10^3 M^−1s^−1, the Dissociation rate kd was 1.61 ± 0.28 × 10^−3 s^−1 and the Kd came to 231 nM.
